Experimental data reported in patent US20110280859A1 (UNIVERSITY OF ROCHESTER, published 2011).

Key:
[1] = biological target: β1 integrins on human neutrophils (human, UniProt P05556 21-798); experiment: cell-based or functional assay
[2] = biological target: β3 integrins on human neutrophils (human, UniProt P05106 27-788); experiment: cell-based or functional assay
Sequence of β3 integrins on human neutrophils (P05106 27-788): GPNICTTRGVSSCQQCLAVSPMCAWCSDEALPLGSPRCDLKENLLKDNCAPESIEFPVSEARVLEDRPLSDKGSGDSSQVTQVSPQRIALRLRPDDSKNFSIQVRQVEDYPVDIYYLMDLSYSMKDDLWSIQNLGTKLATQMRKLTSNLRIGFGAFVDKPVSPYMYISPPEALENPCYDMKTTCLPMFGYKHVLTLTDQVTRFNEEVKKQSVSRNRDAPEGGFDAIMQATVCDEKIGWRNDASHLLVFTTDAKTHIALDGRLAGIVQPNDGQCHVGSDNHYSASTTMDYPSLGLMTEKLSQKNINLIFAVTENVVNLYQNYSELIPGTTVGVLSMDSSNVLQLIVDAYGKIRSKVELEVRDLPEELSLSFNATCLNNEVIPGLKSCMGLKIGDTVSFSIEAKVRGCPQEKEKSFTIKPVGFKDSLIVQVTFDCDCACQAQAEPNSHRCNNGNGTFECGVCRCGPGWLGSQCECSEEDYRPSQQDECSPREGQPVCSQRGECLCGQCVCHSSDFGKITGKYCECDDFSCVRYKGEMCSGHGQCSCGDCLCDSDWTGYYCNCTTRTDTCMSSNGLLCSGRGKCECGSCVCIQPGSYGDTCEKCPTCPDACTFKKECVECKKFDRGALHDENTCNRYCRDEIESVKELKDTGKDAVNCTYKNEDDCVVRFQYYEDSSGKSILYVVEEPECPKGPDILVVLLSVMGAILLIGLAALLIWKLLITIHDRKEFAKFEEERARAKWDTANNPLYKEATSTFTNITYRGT

Sequence of β1 integrins on human neutrophils (P05556 21-798): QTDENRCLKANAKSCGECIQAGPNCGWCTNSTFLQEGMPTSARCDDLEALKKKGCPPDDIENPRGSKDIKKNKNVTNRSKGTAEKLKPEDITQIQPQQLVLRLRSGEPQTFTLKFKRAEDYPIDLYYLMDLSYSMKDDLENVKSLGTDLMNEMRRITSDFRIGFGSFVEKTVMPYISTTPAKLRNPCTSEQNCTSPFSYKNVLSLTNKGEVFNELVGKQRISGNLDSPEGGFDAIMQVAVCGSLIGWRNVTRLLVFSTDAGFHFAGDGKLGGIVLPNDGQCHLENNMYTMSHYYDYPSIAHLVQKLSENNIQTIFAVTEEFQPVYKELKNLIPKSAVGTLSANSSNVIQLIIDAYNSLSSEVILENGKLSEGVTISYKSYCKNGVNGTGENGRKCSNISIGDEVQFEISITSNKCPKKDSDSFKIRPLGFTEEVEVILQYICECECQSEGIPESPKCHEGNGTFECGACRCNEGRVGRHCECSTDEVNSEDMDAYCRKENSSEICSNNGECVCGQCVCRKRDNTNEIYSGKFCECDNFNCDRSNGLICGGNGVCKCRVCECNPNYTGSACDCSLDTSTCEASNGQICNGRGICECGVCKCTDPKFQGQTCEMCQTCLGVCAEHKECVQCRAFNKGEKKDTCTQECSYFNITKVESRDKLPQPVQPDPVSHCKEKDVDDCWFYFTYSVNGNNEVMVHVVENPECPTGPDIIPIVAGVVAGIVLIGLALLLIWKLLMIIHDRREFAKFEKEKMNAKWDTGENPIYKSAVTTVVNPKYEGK

- average lateral migration speed (S) of neutrophils on FN toward fMLP, micropipette assay [1]: 2.5 fold
- average lateral migration speed (S) of neutrophils on FN toward fMLP, micropipette assay [2]: 2.5 fold
B1: Recombinant human activated protein C (enzyme)
chain 1: ANSFLEELRHSSLERECIEEICDFEEAKEIFQNVDDTLAFWSKHVDGDQCLVLPLEHPCASLCCGHGTCIDGIGSFSCDCRSGWEGRFCQREVSFLNCSLDNGGCTHYCLEEVGWRRCSCAPGYKLGDDLLQCHPAVKFPCGRPWKRMEKKRSHL
chain 2: LIDGKMTRRGDSPWQVVLLDSKKKLACGAVLIHPSWVLTAAHCMDESKKLLVRLGEYDLRRWEKWELDLDIKEVFVHPNYSKSTTDNDIALLHLAQPATLSQTIVPICLPDSGLAERELNQAGQETLVTGWGYHSSREKEAKRNRTFVLNFIKIPVVPHNECSEVMSNMVSENMLCAGILGDRQDACEGDSGGPMVASFHGTWFLVGLVSWGEGCGLLHNYGVYTKVSRYLDWIHGHIRDKEAPQKSWAP
